Experimental data: article PMC11282193, “Mst1-mediated phosphorylation of FoxO1 and C/EBP-β stimulates cell-protective mechanisms in cardiomyocytes”

Experiments:
FoxO1 = FoxO1 (UniProt G3V7R4); test: C/EBP-β IP, FoxO1 immunoblot; details: reference: C/EBP-β-WT; sites T299
C/EBP-β = C/EBP-β (UniProt P21272); test: co-immunoprecipitation from cardiomyocytes; details: reference: FoxO1(S209A); sites S215,S218,T228,S232,S243
FoxO1-WT = FoxO1-WT (mouse, UniProt Q9R1E0 1-652); test: pull-down; without Mst1; EMSA: 20 mM Tris-HCl pH 8.0, 40 mM KCl, 5% glycerol, 0.4 mM DTT, 0.2 mM EDTA, 2 mM MgCl2, 1 mg/ml BSA, 20 ng poly(dI-dC), on ice 15 min, 50 ng protein; pull-down (1x buffer): 10 mM HEPES pH 8, 50 mM KCl, 2.5 mM MgCl2, 1 mM EDTA, 1 mM DTT, 0.1% IGEPAL, 4 C 2 h; details: protein: recombinant; tags: GST removed by PreScission (general method); label: 5' biotin on sense strand; blunt
FoxO1-WT, sequence (Q9R1E0 whole entry): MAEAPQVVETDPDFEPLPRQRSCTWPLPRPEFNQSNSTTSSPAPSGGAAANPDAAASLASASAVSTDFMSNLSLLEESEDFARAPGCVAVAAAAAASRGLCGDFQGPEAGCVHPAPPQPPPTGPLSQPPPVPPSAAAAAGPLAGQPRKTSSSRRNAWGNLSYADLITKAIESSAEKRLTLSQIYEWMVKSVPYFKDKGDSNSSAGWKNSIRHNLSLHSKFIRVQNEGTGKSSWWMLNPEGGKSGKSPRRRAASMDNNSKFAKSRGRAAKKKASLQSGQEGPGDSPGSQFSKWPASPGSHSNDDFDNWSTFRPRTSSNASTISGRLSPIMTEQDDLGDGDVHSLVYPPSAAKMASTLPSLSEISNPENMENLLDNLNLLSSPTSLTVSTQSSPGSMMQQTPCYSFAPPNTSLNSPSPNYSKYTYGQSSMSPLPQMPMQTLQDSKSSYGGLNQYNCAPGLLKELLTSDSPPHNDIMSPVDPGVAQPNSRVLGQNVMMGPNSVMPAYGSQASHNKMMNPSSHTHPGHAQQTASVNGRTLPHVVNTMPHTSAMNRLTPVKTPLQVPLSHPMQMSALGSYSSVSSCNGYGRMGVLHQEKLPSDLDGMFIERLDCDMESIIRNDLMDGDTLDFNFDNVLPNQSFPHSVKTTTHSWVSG

Molecule	binding result (FoxO1-WT)	further results
C/EBP-β (from UniProt P17676) C/EBP-β-PR (T299A)	–	binding against the reference (FoxO1): weaker
FoxO1 (from UniProt Q9R1E0) FoxO1-PR (six sites to Ala)	–	binding against the reference (C/EBP-β): lost
Mt-3xDBE (Biotin-FHRE-mutant) (dsDNA) DNA 1: ACTTACCCACGAGTTACCCACGAGTTACCCACCA DNA 2: TGGTGGGTAACTCGTGGGTAACTCGTGGGTAAGT	no binding	–
WT-3xDBE (Biotin-FHRE-wild type) (dsDNA) DNA 1: CCTTGTTTACGGGTTGTTTACGGGTTGTTTACCC DNA 2: GGGTAAACAACCCGTAAACAACCCGTAAACAAGG	binds	–
